# B1: PksA SAT-KS-MAT tridomain (domain or fragment)
# chain: MAQSRQLFLFGDQTADFVPKLRSLLSVQDSPILAAFLDQSHYVVRAQMLQSMNTVDHKLARTADLRQMVQKYVDGKLTPAFRTALVCLCQLGCFIREYEESGNMYPQPSDSYVLGFCMGSLAAVAVSCSRSLSELLPIAVQTVLIAFRLGLCALEMRDRVDGCSDDRGDPWSTIVWGLDPQQARDQIEVFCRTTNVPQTRRPWISCISKNAITLSGSPSTLRAFCAMPQMAQHRTAPIPICLPAHNGALFTQADITTILDTTPTTPWEQLPGQIPYISHVTGNVVQTSNYRDLIEVALSETLLEQVRLDLVETGLPRLLQSRQVKSVTIVPFLTRMNETMSNILPDSFISTETRTDTGRAIPASGRPGAGKCKLAIVSMSGRFPESPTTESFWDLLYKGLDVCKEVPRRRWDINTHVDPSGKARNKGATKWGCWLDFSGDFDPRFFGISPKEAPQMDPAQRMALMSTYEAMERAGLVPDTTPSTQRDRIGVFHGVTSNDWMETNTAQNIDTYFITGGNRGFIPGRINFCFEFAGPSYTNDTACSSSLAAIHLACNSLWRGDCDTAVAGGTNMIYTPDGHTGLDKGFFLSRTGNCKPYDDKADGYCRAEGVGTVFIKRLEDALADNDPILGVILDAKTNHSAMSESMTRPHVGAQIDNMTAALNTTGLHPNDFSYIEMHGTGTQVGDAVEMESVLSVFAPSETARKADQPLFVGSAKANVGHGEGVSGVTSLIKVLMMMQHDTIPPHCGIKPGSKINRNFPDLGARNVHIAFEPKPWPRTHTPRRVLINNFSAAGGNTALIVEDAPERHWPTEKDPRSSHIVALSAHVGASMKTNLERLHQYLLKNPHTDLAQLSYTTTARRWHYLHRVSVTGASVEEVTRKLEMAIQNGDGVSRPKSKPKILFAFTGQGSQYATMGKQVYDAYPSFREDLEKFDRLAQSHGFPSFLHVCTSPKGDVEEMAPVVVQLAITCLQMALTNLMTSFGIRPDVTVGHSLGEFAALYAAGVLSASDVVYLVGQRAELLQERCQRGTHAMLAVKATPEALSQWIQDHDCEVACINGPEDTVLSGTTKNVAEVQRAMTDNGIKCTLLKLPFAFHSAQVQPILDDFEALAQGATFAKPQLLILSPLLRTEIHEQGVVTPSYVAQHCRHTVDMAQALRSAREKGLIDDKTLVIELGPKPLISGMVKMTLGDKISTLPTLAPNKAIWPSLQKILTSVYTGGWDINWKKYHAPFASSQKVVDLPSYGWDLKDYYIPYQGDWCLHRHQQDCKCAAPGHEIKTADYQVPPESTPHRPSKLDPSKEAFP
# Molecular target: the molecule itself
# Assay: native gel or EMSA
protein,measurement,value
B1,stoichiometry N,2

# — article PMC2872118 (Nature, 2009)
